Where “and” joins values, the source holds several entries; their conditions need not be identical. Equal entries are not always repeated.
Key:
[1] = target: extracellular domain of the Fas ligand derived from COS-1 cell (human); assay: cell-based or functional assay
[2] = target: T1, human Fas ligand expressed on 1A12 cells (human, UniProt P48023 1-281); assay: competitive binding against 125I-labelled mouse F919 on 1A12 cells
T1 construct: whole, on cells; also called Fas ligand antigen on 1A12 transfectant cells
T1 sequence (looked up): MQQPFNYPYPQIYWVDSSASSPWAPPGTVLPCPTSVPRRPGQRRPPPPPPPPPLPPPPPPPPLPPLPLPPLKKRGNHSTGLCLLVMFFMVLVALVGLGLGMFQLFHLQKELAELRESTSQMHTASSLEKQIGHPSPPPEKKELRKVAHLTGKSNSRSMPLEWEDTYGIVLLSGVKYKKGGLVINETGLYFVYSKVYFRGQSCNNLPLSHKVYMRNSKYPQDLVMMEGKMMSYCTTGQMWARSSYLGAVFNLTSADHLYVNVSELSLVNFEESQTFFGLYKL

B1: mouse monoclonal antibody F919-9-18 (antibody, V domains shown)
VH: QIQLVQSGPELKKPGETVKISCKASGYTFTEYPMHWVKQAPGKGFKWMGMIYTDTGEPSYAEEFKGRFAFSLETSASTAYLQINFLKNEDTATYFCVRFYWDYFDYWGQGTTLTVSS
VL: DIQMTQTTSSLSASLGDRVTISCRASQDISNYLNWYQQKPDGTVKLLIYYTSRLHSGVPSRFSGSGSGTNYSLTISNLEQGDIATYFCQQGSTLPWTFGGGTKLEIK
**Q.** B1 was tested. Which apoptosis-suppression activity (fold against F883-1-1) [1] did it give?
**A.** 100

**Q.** And the Ka [2]?
**A.** 3e+08 M⁻¹ and 4e+08 M⁻¹

— patent EP0842948B1 (MOCHIDA PHARMACEUTICAL CO., LTD., dated 2009)
